Experimental data reported in patent publication US20150266977A1 (AbbVie / Abbott, published 2015).
Read-outs that look alike come from different tables or passages of the source.

T1: recombinant human sclerostin (human, UniProt Q9BQB4 24-213)
T1 construct: biotinylated in the ELISAs; also called hu sclerostin; hu scl
T1 sequence: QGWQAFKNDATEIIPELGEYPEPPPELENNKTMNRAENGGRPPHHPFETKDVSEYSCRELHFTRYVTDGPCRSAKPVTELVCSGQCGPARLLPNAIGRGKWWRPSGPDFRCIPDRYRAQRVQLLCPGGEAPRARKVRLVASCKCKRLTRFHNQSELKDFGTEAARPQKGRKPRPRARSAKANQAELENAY

T2: recombinant mouse sclerostin (mouse, UniProt Q99P68 24-211)
T2 construct: also called ms sclerostin; murine sclerostin
T2 sequence (looked up): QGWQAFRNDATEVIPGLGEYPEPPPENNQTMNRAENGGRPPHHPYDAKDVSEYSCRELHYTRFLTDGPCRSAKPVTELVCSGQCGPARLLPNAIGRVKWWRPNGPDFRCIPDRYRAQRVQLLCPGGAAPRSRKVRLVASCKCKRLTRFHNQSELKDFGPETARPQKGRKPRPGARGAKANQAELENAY

T3: recombinant rat sclerostin (rat, UniProt Q99P67 24-213, limits assumed)
T3 sequence (looked up): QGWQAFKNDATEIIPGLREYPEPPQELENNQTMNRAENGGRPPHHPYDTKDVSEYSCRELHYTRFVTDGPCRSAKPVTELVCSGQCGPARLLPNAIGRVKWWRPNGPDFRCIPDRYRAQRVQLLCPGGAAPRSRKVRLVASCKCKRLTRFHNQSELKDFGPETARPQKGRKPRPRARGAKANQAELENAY


Legend:
Assay in all cases: SPR
[1] = target: T1, recombinant human sclerostin
Description: (§1) The binding of antibodies or anti-sclerostin-TNF DVD to purified recombinant human, cynomolgus monkey (cyno), rat and mouse sclerostin and TNFα was determined by surface plasmon resonance-based measurements with a Biacore T100 or T200 instruments (GE Healthcare Life Sciences, Piscataway, N.J., USA) using running HBS-EP+ (10 mM HEPES [pH 7.4], 150 mM NaCl, 3 mM EDTA, and 0.005% surfactant P20) containing additional 150 mM NaCl, and/or 10 mg/ml carboxymethyl dextran, 0.1 mg/ml BSA at 25° C. All chemicals were obtained from GE Healthcare Life Sciences, Piscataway, N.J., USA or otherwise from a different source as described in the text. Approximately 10,000 RU (or 3000 RU when CM3 chip was used) of goat anti-mouse or anti-human IgG (Fcγ) fragment specific polyclonal antibody (Pierce Biotechnology Inc, Rockford, Ill.) diluted in 10 mM sodium acetate (pH 4.5) was directly immobilized across a CM5 (or CM3) research grade biosensor chip using a standard amine coupling kit according to manufacturer's instructions and procedures at 15 μg/ml. Unreacted moieties on the biosensor surface were blocked with ethanolamine. Modified carboxymethyl dextran surface in flowcells 2, 3 and 4 were used as a reaction surface. Modified carboxymethyl dextran in flow cell 1 was used as the reference surface. Biaevaluation T100 software version 2.0.2, GE Healthcare Life Sciences was used to simultaneously fit association and dissociation phases of all injections (using 1:1 fit analysis with local Rmax). Purified antibodies were diluted in running buffer for capture across goat anti-mouse or anti-human IgG specific reaction surfaces. Antibodies to be captured as a ligand (1 μg/ml) were injected over reaction matrices at a flow rate of 10 μl/minute. The association and dissociation rate constants, kon (unit M-1 s-1) and koff (unit s-1) were determined under a continuous flow rate of 50 μl/minute. […] At the end of each cycle the surfaces were regenerated with 10 s injection of 50 mM NaOH or/and by 10 s injection of 10 mM Glycine pH1.5 at a flow rate of 100 μl/min.

[2] = target: T4, recombinant cynomolgus monkey sclerostin (cynomolgus monkey)
T4 construct: also called cyno sclerostin; Cyno sclerostin
Description: as §1

[3] = target: T2, recombinant mouse sclerostin
Description: as §1

[4] = target: T3, recombinant rat sclerostin
Description: as §1

[5] = target: T2, recombinant mouse sclerostin; remark: listed apart in the source
[6] = target: T3, recombinant rat sclerostin; remark: listed apart in the source
[7] = target: T1, recombinant human sclerostin; remark: listed apart in the source
Description: (§2) Approximately 10,000 RU (or 3000 RU when CM3 chip was used) of goat anti-mouse or anti-human IgG (Fcγ) fragment specific polyclonal antibody (Pierce Biotechnology Inc, Rockford, Ill.) diluted in 10 mM sodium acetate (pH 4.5) was directly immobilized across a CM5 (or CM3) research grade biosensor chip using a standard amine coupling kit according to manufacturer's instructions and procedures at 15 μg/ml. Unreacted moieties on the biosensor surface were blocked with ethanolamine. Modified carboxymethyl dextran surface in flowcells 2, 3 and 4 were used as a reaction surface. Modified carboxymethyl dextran in flow cell 1 was used as the reference surface. Biaevaluation T100 software version 2.0.2, GE Healthcare Life Sciences was used to simultaneously fit association and dissociation phases of all injections (using 1:1 fit analysis with local Rmax). Purified antibodies were diluted in running buffer for capture across goat anti-mouse or anti-human IgG specific reaction surfaces. Antibodies to be captured as a ligand (1 μg/ml) were injected over reaction matrices at a flow rate of 10 μl/minute. The association and dissociation rate constants, kon (unit M-1 s-1) and koff (unit s-1) were determined under a continuous flow rate of 50 μl/minute. […] At the end of each cycle the surfaces were regenerated with 10 s injection of 50 mM NaOH or/and by 10 s injection of 10 mM Glycine pH1.5 at a flow rate of 100 μl/min. Instrument appropriate Biaevaluation software, GE Healthcare Life Sciences was used to simultaneously fit association and dissociation constants as well as KD (using 1:1 global fit analysis with local Rₘₐₓ). Binding was recorded as a function of time and kinetic rate constants are calculated. In this assay, on-rates as fast as 10⁷ M⁻¹ s⁻¹ and off-rates as slow as 10⁻⁶ s⁻¹ can be measured.

[8] = target: T4, recombinant cynomolgus monkey sclerostin; remark: listed apart in the source
Description: as §2

Row | binding result [5] | binding result [6] | Kd [7] | koff [7] | kon [7] | Kd [8] | koff [8] | kon [8] | Binder | other results
1 |  |  |  |  |  |  |  |  | AE10-6-AM8 (antibody, V domains shown, converted into IgG) VH: EVQLVQSGAEVKKPGASVKVSCKVSGYTLSELSIHWVRQAPGKGLEWMGGFDPEDGETIYAQKFQGRVTMTEDTSTDTAYMELSSLRSEDTAVYYCATDSAGYWYKFFQHWGQGTLVTVSS VL: QAVVTQEPSLTVSPGGTVTLTCGSSTGAVTIDHYPYWFQQKPGQAPRTLISDTDDKHSWTPARFSGSLLGGKAALTLSGAQPEDEAEYYCLLDYGGSFVFGGGTKLTVL | Kd [1]: 0.0013 nM; koff [1]: 9.7e-06 s⁻¹; kon [1]: 7.4e+06 M⁻¹ s⁻¹; Kd [2]: 0.00039 nM; koff [2]: 3e-06 s⁻¹; kon [2]: 7.7e+06 M⁻¹ s⁻¹; Kd [3]: 0.0074 nM; koff [3]: 8.2e-05 s⁻¹; kon [3]: 1.1e+07 M⁻¹ s⁻¹; Kd [4]: 0.034 nM; koff [4]: 5.9e-05 s⁻¹; kon [4]: 1.8e+06 M⁻¹ s⁻¹
2 | no binding | no binding | 0.054 nM | 5.2e-06 s⁻¹ | 96000 M⁻¹ s⁻¹ |  |  |  | MSL10-AM9 (antibody, V domains shown) VH: EVQLVESGGGLVQPGRSLRLSCAASGFTFDDYALHWVRQAPGKGLEWVSGIGWDDDMIDYADSVKGRFTISRDNAKNSLYLQMNSLRVEDTALYYCAGNNRGYGGLDVWGQGTTVTVSS VL: not shown | 
3 | no binding | no binding | 0.9 nM | 7.6e-05 s⁻¹ | 84000 M⁻¹ s⁻¹ | 1.3 nM | 0.0001 s⁻¹ | 77000 M⁻¹ s⁻¹ | MSL10-AM3 (antibody, V domains shown) VH: EVQLVESGGGLVQPGRSLRLSCAASGFTFDDYALHWVRQAPGKGLEWVSGIGWDEDMIDYADSVKGRFTISRDNAKNSLYLQMNSLRVEDTALYYCAGNNRGYGGLDVWGQGTTVTVSS VL: not shown | 
4 | no binding | no binding | 0.33 nM | 0.00011 s⁻¹ | 340000 M⁻¹ s⁻¹ | 0.11 nM | 6.7e-05 s⁻¹ | 600000 M⁻¹ s⁻¹ | MSL10-AM2.2 (antibody, V domains shown) VH: EVQLVESGGGLVQPGRSLRLSCAASGFTFDDYALHWVRQAPGKGLEWVSGIGWEDDMIDYADSVKGRFTISRDNAKNSLYLQMNSLRVEDTALYYCAGNSRGYGGLDVWGQGTTVTVSS VL: not shown | 
5 | no binding | no binding | 0.065 nM | 7.6e-06 s⁻¹ | 120000 M⁻¹ s⁻¹ | 0.77 nM | 8.8e-05 s⁻¹ | 110000 M⁻¹ s⁻¹ | MSL10-AM2 (antibody, V domains shown) VH: EVQLVESGGGLVQPGRSLRLSCAASGFTFDDYALHWVRQAPGKGLEWVSGIGWEDDMIDYADSVKGRFTISRDNAKNSLYLQMNSLRVEDTALYYCAGNSRGYGGLDVWGQGTTVTVSS VL: not shown | 
6 | no binding | no binding | 0.85 nM | 7.4e-05 s⁻¹ | 88000 M⁻¹ s⁻¹ |  |  |  | MSL10-AM11 (antibody, V domains shown) VH: EVQLVESGGGLVQPGRSLRLSCAASGFTFDDYALHWVRQAPGKGLEWVSGISWHGDFIDYADSVKGRFTISRDNAKNSLYLQMNSLRVEDTALYYCAGNNRGYGGLDVWGQGTTVTVSS VL: not shown | 
7 | no binding | no binding | 0.3 nM | 1.6e-05 s⁻¹ | 52000 M⁻¹ s⁻¹ | 0.42 nM | 2.3e-05 s⁻¹ | 54000 M⁻¹ s⁻¹ | MSL10-AM1 (antibody, V domains shown) VH: EVQLVESGGGLVQPGRSLRLSCAASGFTFDDYALHWVRQAPGKGLEWVSGINWEGDDIDYADSVKGRFTISRDNAKNSLYLQMNSLRVEDTALYYCAGNSRGYGGLDVWGQGTTVTVSS VL: not shown | 
8 | no binding | no binding | 0.29 nM | 3.9e-05 s⁻¹ | 130000 M⁻¹ s⁻¹ |  |  |  | MSL10-AM10 (antibody, V domains shown) VH: EVQLVESGGGLVQPGRSLRLSCAASGFTFSDYALHWVRQAPGKGLEWVSGISWYGDDIDYADSVKGRFTISRDNAKNSLYLQMNSLRVEDTALYYCAGNIRGYGGLDVWGQGTTVTVSS VL: not shown | 
9 | no binding | no binding | 0.97 nM | 7.4e-05 s⁻¹ | 77000 M⁻¹ s⁻¹ | 1.1 nM | 8.7e-05 s⁻¹ | 82000 M⁻¹ s⁻¹ | MSL10-AM5 (antibody, V domains shown) VH: EVQLVESGGGLVQPGRSLRLSCAASGFTFDDYALHWVRQAPGKGLEWVSGISWHGDFIDYADSVKGRFTISRDNAKNSLYLQMNSLRVEDTALYYCAGNNRGYGGLDVWGQGTTVTVSS VL: not shown | 
10 | no binding | no binding | 0.73 nM | 7.7e-05 s⁻¹ | 110000 M⁻¹ s⁻¹ |  |  |  | MSL10-AM8 (antibody, V domains shown) VH: EVQLVESGGGLVQPGRSLRLSCAASGFTFEDYALHWVRQAPGKGLEWVSGIGWDRDFIDYADSVKGRFTISRDNAKNSLYLQMNSLRVEDTALYYCAGNKIGYGGLDVWGQGTTVTVSS VL: not shown | 
11 | no binding | no binding | 0.42 nM | 7.2e-05 s⁻¹ | 170000 M⁻¹ s⁻¹ |  |  |  | MSL10-AM7 (antibody, V domains shown) VH: EVQLVESGGGLVQPGRSLRLSCAASGFTFEDYALHWVRQAPGKGLEWVSGIGWNDDEIDYADSVKGRFTISRDNSKNSLYLQMNSLRVEDTALYYCAGNNRGYGGLDVWGQGTTVTVSS VL: not shown | 
12 | no binding | no binding | 5.3 nM | 0.00073 s⁻¹ | 140000 M⁻¹ s⁻¹ | 5.6 nM | 0.00073 s⁻¹ | 130000 M⁻¹ s⁻¹ | MSL10-AM4 (antibody, V domains shown) VH: EVQLVESGGGLVQPGRSLRLSCAASGFTFEDYALHWVRQAPGKGLEWVSGIGWDDDMIDYADSVKGRFTISRDNAKNSLYLQMNSLRVEDTALYYCAGNNRGYGGLDVWGQGTTVTVSS VL: not shown | 
13 | no binding | no binding | 3.4 nM | 0.00055 s⁻¹ | 170000 M⁻¹ s⁻¹ |  |  |  | MSL10-AM6 (antibody, V domains shown) VH: EVQLVESGGGLVQPGRSLRLSCAASGFTFDQYALHWVRQAPGKGLEWVSGINWDGDYIDYADSVKGRFTISRDNAKNSLYLQMNSLRVEDTALYYCAGNIRGYGGLDVWGQGTTVTVSS VL: not shown | 
